Results on three molecules are retold here after PMC7337520, “NF90 modulates processing of a subset of human pri-miRNAs”.

The target in data set [1] is T1, NF90 (UniProt Q12906-2 1-702).
T1 sequence: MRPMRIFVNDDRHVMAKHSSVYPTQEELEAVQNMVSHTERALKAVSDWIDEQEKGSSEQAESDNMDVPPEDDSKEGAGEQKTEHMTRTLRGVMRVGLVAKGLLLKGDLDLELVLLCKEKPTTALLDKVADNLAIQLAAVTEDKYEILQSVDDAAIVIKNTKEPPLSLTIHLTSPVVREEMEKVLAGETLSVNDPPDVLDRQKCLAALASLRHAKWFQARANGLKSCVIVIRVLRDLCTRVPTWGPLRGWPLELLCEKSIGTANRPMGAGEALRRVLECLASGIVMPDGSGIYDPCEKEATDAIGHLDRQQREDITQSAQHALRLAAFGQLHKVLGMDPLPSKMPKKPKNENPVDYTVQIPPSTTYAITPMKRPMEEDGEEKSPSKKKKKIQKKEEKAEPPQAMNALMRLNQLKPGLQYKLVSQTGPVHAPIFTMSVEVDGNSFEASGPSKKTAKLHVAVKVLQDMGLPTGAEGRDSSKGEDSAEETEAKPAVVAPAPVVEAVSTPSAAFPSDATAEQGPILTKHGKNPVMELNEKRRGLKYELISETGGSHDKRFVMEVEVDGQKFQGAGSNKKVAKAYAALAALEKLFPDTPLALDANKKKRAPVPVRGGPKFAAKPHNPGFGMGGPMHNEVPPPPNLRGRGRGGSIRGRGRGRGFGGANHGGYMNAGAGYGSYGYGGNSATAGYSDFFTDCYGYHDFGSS
Nature of the data set: EMSA; RNA EMSA as in ref 15; buffer, salt, pH and temperature not given; at least three replicates. Particulars: protein: recombinant; label: radiolabel; hairpin.

Data set [2] has as its target T1, NF90. As to the kind of experiment: EMSA; enhanced vs WT; band intensities only in figure; RNA EMSA as in ref 15; buffer, salt, pH and temperature not given; at least three replicates. Conditions: protein: recombinant; label: radiolabel; hairpin. Background: In EMSA bound probe runs differently from free probe, usually more slowly.

B1: pri-miR-3173 WT (structured_RNA)
RNA: CAUUGGAGGUCUAGGGCUUAUUUUCCAGAUAGAAUUGAGUCUUUGUUGGUCUUGGGCCAGCUUCCCUGCCCUGCCUGUUUUCUCCUUUGUGAUUUUAUGAGAACAAAGGAGGAAAUAGGCAGGCCAGGGAAACGAUCUCUCUCCCUCUCUUGUGCCGAGGAAGAACU
As for B1, the binding result with NF90 [1] is reported as “binds”.

B2: pri-miR-200a mutant #1 (structured_RNA)
RNA: CUGGCUGCUCACCGCUCCGGUUCUUCCCUGGGCUUCCACAGCAGCCCCUGCCUGCCUGGCGGGACCCCACGUCCCUCCCGGGCCCCUGUGAGCAUCUUACCGGACAGUGCUGGAUUUCCCAGCCUGUCUGGUAACGAUGUUCAAAGGUGACCCGCCGCUCGCCGGGGACACCACCGAGGCACAUC
Consider B2, for which, in the data set with NF90 [2], the binding result is given as “binds”.

B3: pri-miR-186 WT (structured_RNA)
RNA: ACAGAACACCCAUCAUAUUCUUCCCAAACAUUUUUUCAUUGCUUGUAACUUUCCAAAGAAUUCUCCUUUUGGGCUUUCUGGUUUUAUUUUAAGCCCAAAGGUGAAUUUUUUGGGAAGUUUGAGCUAAAUUCCUUCAACCAAAAUAUACAAGUGAAGAAAAAAAAUUUGUAUUUAAACAUUUGCACAUUUACUUCUACCUGAAGCAUGUGAAUGUCAAC
As to B3, the binding result with NF90 [1] is recorded as “binds”.
